Measured values: article PMC11573645

molecular target: complement component C3b, site-specifically biotinylated at Cys-1010 (human) (UniProt P01024); assay: SPR

| Substance | Ka-1 (two-state model, first step, association) | Kd | Kd-1 (two-state model, first step, dissociation) | Kd-2 (two-state model, second step, reverse) | Ka-2 (two-state model, second step, forward) |
| --- | --- | --- | --- | --- | --- |
| Native FB purified from human serum (natural protein) | 168000 M⁻¹ s⁻¹ | 109 nM | 0.0702 s⁻¹ | 0.00249 s⁻¹ | – |
| recombinant FB with D279G, K350N, and S699A (from UniProt P00751 26-764) (natural protein) | 256000 M⁻¹ s⁻¹ | 104 nM | 0.0469 s⁻¹ | 0.00836 s⁻¹ | – |
| recombinant FB with K350N mutation (from UniProt P00751 26-764) (natural protein) | 131000 M⁻¹ s⁻¹ | 322 nM | 0.0995 s⁻¹ | 0.00419 s⁻¹ | – |
| recombinant wild-type FB (from UniProt P00751 26-764) (natural protein) | 325000 M⁻¹ s⁻¹ | – | 0.0796 s⁻¹ | 0.0138 s⁻¹ | – |

Other lines, results leading:

| Ka-1 (two-state model, first step, association) | Kd | Kd-1 (two-state model, first step, dissociation) | Kd-2 (two-state model, second step, reverse) | Ka-2 (two-state model, second step, forward) | Substance |
| --- | --- | --- | --- | --- | --- |
| 225000 M⁻¹ s⁻¹ | – | 0.0526 s⁻¹ | 0.0045 s⁻¹ | – | recombinant FB with D279G and K350N (from UniProt P00751 26-764) (natural protein) |
| 304000 M⁻¹ s⁻¹ | – | 0.0376 s⁻¹ | 0.00941 s⁻¹ | – | recombinant FB with D279G mutation (from UniProt P00751 26-764) (natural protein) |
| 551000 M⁻¹ s⁻¹ | – | 0.0229 s⁻¹ | 0.0083 s⁻¹ | 0.0289 s⁻¹ | recombinant FB with F286L mutation (from UniProt P00751 26-764) (natural protein) |
| 280000 M⁻¹ s⁻¹ | 159 nM | 0.0807 s⁻¹ | 0.00723 s⁻¹ | – | recombinant FB with K323E mutation (from UniProt P00751 26-764) (natural protein) |
